Patent publication US20230346966A1

Molecular target: recombinant human TfR1 (human) (UniProt P02786)
Experiment: SPR (Carterra LSA), IgG captured, TfR1 injected, 25 C

Sequence of recombinant human TfR1 (human) (P02786 89-760 limits assumed): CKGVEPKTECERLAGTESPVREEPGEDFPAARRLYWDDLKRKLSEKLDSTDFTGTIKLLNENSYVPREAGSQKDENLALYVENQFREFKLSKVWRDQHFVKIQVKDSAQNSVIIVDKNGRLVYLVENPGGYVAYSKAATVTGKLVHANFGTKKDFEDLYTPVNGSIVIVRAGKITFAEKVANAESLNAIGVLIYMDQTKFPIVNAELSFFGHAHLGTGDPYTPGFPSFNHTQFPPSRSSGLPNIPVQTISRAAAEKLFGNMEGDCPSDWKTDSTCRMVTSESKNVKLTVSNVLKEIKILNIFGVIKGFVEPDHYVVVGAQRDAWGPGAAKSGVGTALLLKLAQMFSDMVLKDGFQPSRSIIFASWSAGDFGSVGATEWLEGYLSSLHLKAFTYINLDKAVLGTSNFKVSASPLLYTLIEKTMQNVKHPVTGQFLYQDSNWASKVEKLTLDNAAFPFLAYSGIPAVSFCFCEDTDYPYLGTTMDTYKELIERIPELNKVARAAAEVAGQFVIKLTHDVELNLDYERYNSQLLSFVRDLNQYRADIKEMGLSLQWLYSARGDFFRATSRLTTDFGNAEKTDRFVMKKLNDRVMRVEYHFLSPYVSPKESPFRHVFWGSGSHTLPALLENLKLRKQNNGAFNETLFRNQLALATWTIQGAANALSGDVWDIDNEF

OKT9 mIgG (control) (antibody)
Kd: 0.536 nM | kon: 774000 M⁻¹ s⁻¹
